Measurements: the RNAGym collection of RNA variant scans (doi:10.1073/pnas.2313332121)
Variants at the floor of the assay were thinned out.

B1: TPR 5TU (parent)
chain: GGAUCUUCUCGAUCUAACAAAAAAGACAAAUCUGCCACAAAGCUUGAGAGCAUCUUCGGAUGCAGAGGCGGCAGCCUUCGGUGGCGCGAUAGCGCCAACGUUCUCAACUAUGACACGCAAAACGCGUGCUCCGUUGAAUGGAGUUUAUCAUG

Variants of: B1
Assay: polymerase ribozyme fitness, log enrichment relative to wild type (log ratio); higher = more active; in vitro selection for triplet polymerase activity
Procedure, shortened: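 Only genotypes with ≥10 input reads and ≥1 read per output were kept after Illumina sequencing of input and output libraries. These libraries were PCR-built, transcribed mutants of each subunit of a heterodimeric triplet polymerase ribozyme, each put through one triplicate in vitro selection round with frozen incubation at −7 °C, gel excision of extended constructs, streptavidin-bead capture and RT-PCR. Fitness is a logarithmic ratio of genotype enrichment to wild-type enrichment, from inverse-variance-weighted replicate averages, with the logarithm in base 2.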

Variant | polymerase ribozyme fitness (log ratio)
GGAUCUUCUCGAUCUAACAAAAAAGACAAAUCUGCCACAAAGCUUGAGAGCAUCUUCGGAUGUAGAGGCGGCAGACUUCGGUGGCACGUUAGCGCCAACGUUCUCUACUAUGACACGCAAAACGCGUGCUCCGGUGAAUGGAGUUUAUCAUG [C63U C75A G86A A89U A106U U134G] | ≤ -4.2
GGAUCUUCUCGAUCUAACAAAAAAGACAAAUCUGCCACAAAGCUUGAGAGCAUCUUCGGAUCCAGAGGCGGCAGCCUUCGAUGGCGCGAUUGCGCCAACGUUCUCAACUAUGUCACGCAAAACGUGUGCUCCGUUGAAUGGAGUUUAUCAUG [G62C G81A A91U A113U C125U] | ≤ -4.2
GGAUCUUCUCGAUCUAACAAAAAAGACAAAUCUGCCACAAAGCUUGAGAGCAUCUUCGGAUUCAGAGGCGGCAGCCUUCGGUGGCGCGAUAGCGCCAACGUUCUCAACUAUGACACGCAAAACGCGUGCUCCGUUAAAUGGAGUUUAUCAUG [G62U G136A] | 0.626
GGAUCUUCUCGAUCUAACAAAAAAGACAAAUCUGCCACAAAGCUUGAGAGCAUCUUCGGAUGUAGAGGCGGCAGCCUUCGGUGGCGCGAUAGCGCCAAUGUUCUCAACUAUGACAAGCAAAACGCGUGCUCCGUUGAAUGGAGUUUAUCAUG [C63U C99U C116A] | 0.561
GGAUCUUCUCGAUCUAACAAAAAAGACAAAUCUGCCACAAAGCUUGAGAGCAUCUUCGGAUGUAGAGGCGGCGGCCUUCGGUGGCGCGAUAGCGCCAACGUUCUCAACUAUGACACGCAAAACGCGUGCUCCGUUGAAUGGAGUUUAUCAUG [C63U A73G] | -0.225
GGAUCUUCUCGAUCUAACAAAAAAGACAAAUCUGCCACAAAGCUUGAGAGCAUCUUCGGAUGAAGAGGCGGCAGCCUUCGGUAGCGCGAUAGCGCCAACGUUCUCAACUAUGACACGCAAAACGCGUGCUCCGUUGAAUGGAGUCUAUCUUG [C63A G83A U145C A150U] | -0.965
GGAUCUUCUCGAUCUAACAAAAAAGACAAAUCUGCCACAAAGCUUGAGAGCAUCUUCGGAUUCAGAGGCGGCAGCCUUCGGUGGCGCGAUAGCACCAACGUUCUCAACUAUGACACGCAAAACGCGUGCUCCGUUGAAUGGAGUUUAUCAUG [G62U G94A] | -1.25
GGAUCUUCUCGAUCUAACAAAAAAGACAAAUCUGCCACAAAGCUUGAGAGCAUCUUCGGAUGUAGAGGCCGCAGCCUUCGGUGGCGGGGUAGCGCAAACGUUCUCAACUAUGACACGCAAAACGCCUGCUCCGUUGAAUGGAGUUUAUCAUG [C63U G70C C87G A89G C96A G126C] | ≤ -4.2
GGAUCUUCUCGAUCUAACAAAAAAGACAAAUCUGCCACAAAGCUUGAGAGCAUCUUCGGAUGUAGAGGCGGCAGCCUUCGGUGGUGCGAUAGCGUCAACGUUCUCAACUAUGACACGCAAAACGCGUGCUCCGUUGAAUGGAGUUUAUUAUG [C63U C85U C95U C149U] | -1.91
GGAUCUUCUCGAUCUAACAAAAAAGACAAAUCUGCCACAAAGCUUGAGAGCAUCUUCGGAUUCAGAGGCGGCAGCCUUCGGUGGCGCGAUAGCGCCAACGUUCUCAACUAUGACAUGCAAAACGCGUGCUCCGUUGAAUGGAGUUUAUCAUG [G62U C116U] | 0.138
GGAUCUUCUCGAUCUAACAAAAAAGACAAAUCUGCCACAAAGCUUGAGAGCAUCUUCGGAUGGAGAGGCGGCAGCCUUCGGUGGCGCGAUAGCGCCAUUGUUCUCAACUAUGACACGCAAAACGCGUGCUCCGUUGAAUGGAGUUUAUCAUG [C63G A98U C99U] | 0.639
GGAUCUUCUCGAUCUAACAAAAAAGACAAAUCUGCCACAAAGCUUGAGAGCAUCUUCGGAUGGAGAGGCGGCAGCCUUCGGUGGCGCGAGAGCACCAACGUUCUCAACUAUGACACGCAAAACGCGUGCUCCGUUGAAUGGAGUUUAUCAUG [C63G U90G G94A] | -3.97
GGAUCUUCUCGAUCUAACAAAAAAGACAAAUCUGCCACAAAGCUUGAGAGCAUCUUCGGAUGUAGAGGCGGCAGCCUUCGGUGGCGCGAUAGCGCCAACGUUCUCAACUAUGACACGCAAAACGCGUGCUCCGUUGAAUGGAGUUUAUCUUG [C63U A150U] | 0.854
GGAUCUUCUCGAUCUAACAAAAAAGACAAAUCUGCCACAAAGCUUGAGAGCAUCUUCGGAUGGAGAGGCGGUAGCCUUCGGUGGCGCGAUAGUGCCAACGUUCUCAACUAUGACACGCAAAACGCGUGCUCCGUUGAAUGGAGUUUAUCAUG [C63G C72U C93U] | -0.337
GGAUCUUCUCGAUCUAACAAAAAAGACAAAUCUGCCACAAAGCUUGAGAGCAUCUUCGGAUCCAGAGGCGGCAGCCUUCGGUGGCGCGAUAGCACCAACGUUCUCAACUAUGACACGCAAAACGCGUGCUCCCUUGAAUGUAGUUUAUCAUG [G62C G94A G133C G141U] | -3.95
GGAUCUUCUCGAUCUAACAAAAAAGACAAAUCUGCCACAAAGCUUGAGAGCAUCUUCGGAUUCAGAGGCGGCAGCCUUCGGUGGCGCGAUAGCGCCAACGUUCUCAACUAUGACACGCAAAACGCGUGCUCCGUUGAAUGGAGUGUAUCAUG [G62U U145G] | -0.51
GGAUCUUCUCGAUCUAACAAAAAAGACAAAUCUGCCACAAAGCUUGAGAGCAUCUUCGGAUGUAGAGGCGGCAGACUUCGGUGACGCGAUAGCGCCAACGUUCUCAACUAUGACACGGAGAACGCGUGCUCCGUUGAAUGGAGUUUAUCAUG [C63U C75A G84A C118G A120G] | ≤ -4.2
GGAUCUUCUCGAUCUAACAAAAAAGACAAAUCUGCCACAAAGCUUGAGAGCAUCUUCGGAUGAAGAGGCGGCAGCCUUUGGUGGCGCGAUAGCCCCAACGUUCUCAACUAUGACACGCGAAACGCGUGCUCCGUUGAAUGGAGUUUAUCAUG [C63A C79U G94C A119G] | ≤ -4.2
GGAUCUUCUCGAUCUAACAAAAAAGACAAAUCUGCCACAAAGCUUGAGAGCAUCUUCGGAUGUAGAGGCGGCAGCCUUCGGUGGCGCGGUAGAGCCAACGUUCUCAACUAUGACACGCAAAACGCGUGCUCCGUUGAAUGGAGUUUAUCAUG [C63U A89G C93A] | ≤ -4.2

Variant | polymerase ribozyme fitness (log ratio)
GGAUCUUCUCGAUCUAACAAAAAAGACAAAUCUGCCACAAAGCUUGAGAGCAUCUUCGGAUGUAGAGGCGGCAGCCUUCGGUGGCGCGAUAGCGCCAACGUUCUCAACUAUGACACGCAAAUCGCGUGCUCCGUUGAAUGGAGUUUAUCAUG [C63U A122U] | 0.751
GGAUCUUCUCGAUCUAACAAAAAAGACAAAUCUGCCACAAAGCUUGAGAGCAUCUUCGGAUUCAGAGGCGGUAGCCUUCGGUGGCGCGAUAGUGCCAACGUUCUCAACUAUGACACGCAAAGCGCGUGCUCCGUUGAAUGGAGUUUAUCAUG [G62U C72U C93U A122G] | -3.31
GGAUCUUCUCGAUCUAACAAAAAAGACAAAUCUGCCACAAAGCUUGAGAGCAUCUUCGGAUCCAGAGGCGGCAGCCUUCGGUGGCGCGAUAGCGCCAACGUUCUCAACUAUGACACGCAAAACGCGUGCUCCGUUGAAUGCAGUUUAUCAUG [G62C G141C] | -0.741
GGAUCUUCUCGAUCUAACAAAAAAGACAAAUCUGCCACAAAGCUUGAGAGCAUCUUCGGAUGUAGAGGAGGCAGCCUUCAGUGGUGCGAUAGCCCCAAAGUUCUCAACUAUGACACGCAAAACGCGUGCUCCGUUGAAUGGAGUUUAUCAUG [C63U C69A G80A C85U G94C C99A] | -3.32
GGAUCUUCUCGAUCUAACAAAAAAGACAAAUCUGCCACAAAGCUUGAGAGCAUCUUCGGAUUCAGAGGCGGCAGCCUUCGGUGGCGCGAUAGCGCCAACGUUCUCCACUAUGACACGCAAAACGCGUGCUCCGUUGAAUGGAGUUGAUUAUG [G62U A106C U146G C149U] | -3.91
GGAUCUUCUCGAUCUAACAAAAAAGACAAAUCUGCCACAAAGCUUGAGAGCAUCUUCGGAUUUAGAGACGGCAGCCUUCGGUGGCGCGAUAGCGACAACGUUAUCAACUAUGACACGCAAAACGCGUGCUCCGUUGAAUGGAGUUUAUCAUG [G62U C63U G68A C95A C103A] | ≤ -4.2
GGAUCUUCUCGAUCUAACAAAAAAGACAAAUCUGCCACAAAGCUUGAGAGCAUCUUCGGAUUCAGAGGCGGCAGCCUUCGGUGGCGCGAUAGCGACAACGUUCUCAACUAUGACACGCAAAACGCGUGCUCCGUUGAAUGGAGUUUAUCAUG [G62U C95A] | -1.1
GGAUCUUCUCGAUCUAACAAAAAAGACAAAUCUGCCACAAAGCUUGAGAGCAUCUUCGGAUGUAGAGGCGGCAGCCUUCGGUGGUGCGAUAGCGCCAACGUUCUCAACUAUGACACGCAAAACGCGUGCUCCGUUGAAUGGAGUUUAUCAUG [C63U C85U] | -0.275
GGAUCUUCUCGAUCUAACAAAAAAGACAAAUCUGCCACAAAGCUUGAGAGCAUCUUCGGAUCCAGAGGCGGCAGCCUUCGGUGACGCGAUAGCGCCAACGUUCUCAACUAUGACACGCAAAACGGGUACUCCGUUGAAUGGAGUUUAUCAUG [G62C G84A C125G G128A] | ≤ -4.2
GGAUCUUCUCGAUCUAACAAAAAAGACAAAUCUGCCACAAAGCUUGAGAGCAUCUUCGGAUGGAGAGGCGGCAGCCUUCGUUGGCGCGAUAACGCCAACGUUCUCAACUAUGACACCUAAAACGCGUGCUCCGUUGAAUGGAUUUUAUCAUG [C63G G81U G92A G117C C118U G143U] | ≤ -4.2
GGAUCUUCUCGAUCUAACAAAAAAGACAAAUCUGCCACAAAGCUUGAGAGCAUCUUCGGAUUCAGAGGCGGCAGCCUUCGGUGGCGCGAUAGCGCCAACGUUCUCAACCAUGACAUGCAAAACGCGUGCUUCGUUGAAUGGAGUUUUUCAUG [G62U U109C C116U C131U A147U] | -1.94
GGAUCUUCUCGAUCUAACAAAAAAGACAAAUCUGCCACAAAGCUUGAGAGCAUCUUCGGAUCCAGAGGCGGCAGCCUUCGGUGGCGCGAUAGCGCCAACGUUCUCAACUAUGACACGCAAAACGCGUGCUCCGUUGAAUGGAUUUUAUCAUG [G62C G143U] | -3.58
GGAUCUUCUCGAUCUAACAAAAAAGACAAAUCUGCCACAAAGCUUGAGAGCAUCUUCGGAUCCAGAGGCGGCAGCCUUCGGUGGCGCGAUACCGCCAACGUUCUCAACUAUGACACGCAAAACGCGUGCUCCGUUGAAUGGAGUUUAUCAUG [G62C G92C] | -3.09
GGAUCUUCUCGAUCUAACAAAAAAGACAAAUCUGCCACAAAGCUUGAGAGCAUCUUCGGAUGUAGAGGCGGCAGCCUUCAGUGGCGCGAUAGCGCCGACGUUCUCAACUGUGACACGCAAAACGCGUGCUCCGUUGAAUGGAGUUUAUCAUG [C63U G80A A97G A110G] | -4.19
GGAUCUUCUCGAUCUAACAAAAAAGACAAAUCUGCCACAAAGCUUGAGAGCAUCUUCGGAUGUAGAGGCGGCAGCCUUCGGUGGCGCGAUAGCGCCAAGGUUCUCAACUAUGACACGCAAAACGCGUGCUCCGUUGAAUGGAGUUUAUCAAG [C63U C99G U151A] | ≤ -4.2
GGAUCUUCUCGAUCUAACAAAAAAGACAAAUCUGCCACAAAGCUUGAGAGCAUCUUCGGAUGCCGAGGCGGCAGCCUUCGGUGGCGCGAUAGCGCCAACGUUCUCAACUAUGACACGCAAAACGCGUGCUCCGUUGAAUGGAGUUUAUCAUG [A64C] | ≤ -4.2
GGAUCUUCUCGAUCUAACAAAAAAGACAAAUCUGCCACAAAGCUUGAGAGCAUCUUCGGAUGUAGAGGCGGCAGCCUUGGGUGGCGCGAUGGCGCCAACGUUCUCAGCUAUGACACGCAAAACGCGUGCUCCGUUGAAUGGAGUUUAUCAUG [C63U C79G A91G A107G] | ≤ -4.2
GGAUCUUCUCGAUCUAACAAAAAAGACAAAUCUGCCACAAAGCUUGAGAGCAUCUUCGGAUGUAGAGACGGCAGCCUUCGGUCGCGCGAUAGCGCCAACGUUCUCAACUAUGACCCGCAAAACGCGUGCUCCGUUGAAUGGAGCUUAUAAUG [C63U G68A G83C A115C U144C C149A] | ≤ -4.2
GGAUCUUCUCGAUCUAACAAAAAAGACAAAUCUGCCACAAAGCUUGAGAGCAUCUUCGGAUGUGGAGGCGGCAGCCUUCGGUCGCGCGAUAGCGCCAACGUUCUCAACUAUGACACGCAAAACGCGUGCUCCGUUGAAUGGAGUUUAUCAUG [C63U A64G G83C] | ≤ -4.2
